The target of the experiment is biotinylated TGPAvi (Galaxea fascicularis (engineered …, biotin on the Avi-tag (enzymatic biotinylation with BirA))). The experiment can be described thus: BLI. (In general: In BLI a coated tip is dipped into the sample, and binding shifts an interference pattern.)

B1: Sb32 (VHH)
VHH: QVQLVESGGGLVQAGGSLRLSCAASGFPVGQQKMTWYRQAPGKEREWVAAITSAGWFTHYADSVKGRFTISRDNAKNTVYLQMNSLKPEDTAVYYCTVKVGAEYAGQGTQVTVSA
As a reminder, the Kd is a measure of binding affinity in units of concentration. The low end stands for higher affinity, the high end for lower affinity. As usually defined, the koff is the first-order rate constant of dissociation. As usually defined, the kon is a measure of how fast the partners come together. Consider B1, for which the Kd was 26 nM, the koff worked out at 0.014 s⁻¹ and the kon worked out at 530000 M⁻¹ s⁻¹.

These data come from paper doi:10.64898/2025.12.23.696179 (bioRxiv, 2025).
